Assay results as given in patent US11110158B2, “Prostate-associated antigens and vaccine-based immunotherapy regimens” (Pfizer Inc., priority 2012, dated 2021).

System: PSA
Test: Sandwich ELISA, anti-PSA antibody response in vaccinated mice
Type: in vivo, mouse
Conditions: Table 15; for # of positive: mice with anti-PSA antibody response / mice tested

Molecule	ELISA (OD = 1.0) Average (SD) (anti-PSA antibody titer at OD of 1.0)	# of positive
PSA membrane-bound: PSA amino acids 25-261 linked to human PSMA transmembrane domain (aa 15-54), SEQ ID NO: 19 (protein) MASARRPRWLCAGALVLAGGFFLLGFLFGWFIKSSNEATNITPGIVGGWECEKHSQPWQVLVASRGRAVCGGVLVHPQWVLTAAHCIRNKSVILLGRHSLFHPEDTGQVFQVSHSFPHPLYDMSLLKNRFLRPGDDSSHDLMLLRLSEPAELTDAVKVMDLPTQEPALGTTCYASGWGSIEPEEFLTPKKLQCVDLHVISNDVCAQVHPQKVTKFMLCAGRWTGGKSTCSGDSGGPLVCNGVLQGITSWGSEPCALPERPSLYTKVVHYRKWIKDTIVANP	4838 (835)	6/6
PSA secreted: native full length human PSA (amino acids 1-261), SEQ ID NO: 15 (protein, listed as Homo sapiens) MASWVPVVFLTLSVTWIGAAPLILSRIVGGWECEKHSQPWQVLVASRGRAVCGGVLVHPQWVLTAAHCIRNKSVILLGRHSLFHPEDTGQVFQVSHSFPHPLYDMSLLKNRFLRPGDDSSHDLMLLRLSEPAELTDAVKVMDLPTQEPALGTTCYASGWGSIEPEEFLTPKKLQCVDLHVISNDVCAQVHPQKVTKFMLCAGRWTGGKSTCSGDSGGPLVCNGVLQGITSWGSEPCALPERPSLYTKVVHYRKWIKDTIVANP	–	2/6
